Entries after “also recorded” stand apart in the source; their conditions may differ.
Tested on: Arabidopsis plants
Conditions: for High concentration herbicide tolerance: Table 1; for High concentration herbicide tolerance / Herbicide tolerance: yes/no; for Herbicide tolerance: Table 2, FIG. 6C legend: Star 1.25 kg/hectare; for herbicides against which tolerance was shown: FIG. 3C, Strike, Star, Goal, Aurora tested; for rank among fungal isolated-PPO genes for growth in the presence of Strike, Star, Goal and Aurora: Strike 2.5, Star 1.25, Goal 1.15, Aurora 1.0 kg/hectare

B1: SEQ ID NO: 96: PPO from Trichoderma sp. Protein. (protein, listed as Trichoderma sp.)
chain: MSLKRADGAAMAFLRLSSAVCGRRRIPAGGLPADANVAVLGGGLTGLTTAYYLAKWLPPTAKITLLEASDRLGGWIKTDRVPVKVGGVEGVVSFERGPRSLSSLNKSTWRFDDLVLWDLALDLGLRVVSPPDKPRYIYYPDHLVPLPPHTSLAAFASEPLVLESLWAGFGYVLRRLFSRKAGVPVQDLSIADWIQHITGSRAVAENLASAMVHGIYGGDIYTLSARSVLDRFYWVHYLPALGPDVRHMALSEQVFMEAMGQDPLIRKLAQQPRGALLNFGEAGMETLPIALADALNGQANVEVKLGAKVTGLEYESETEMMKITTTGQDDSPAEKYHKVISTLPSQHLARITDTLPSLASSHAVSIMTVNIWYPQTNLKPPGFGYLIPLSVPAEQNPERALGVFFDSDVGVRGPDEPAGTKLFVLMGGHYYDKKQPGASVRVPSEEEAIEQAKRVLERHLGIPQSTPCFAMARLASECIPQYVCGHQDTMAAADEDLRDSFDGRLAVAGGSYTKIGAMGALRNGYDIANTVVREDWLTTGLEQLEFPTQFCGVPTERIPVRRFSRR
High concentration herbicide tolerance: yes
Herbicide tolerance: yes

B2: SEQ ID NO: 116: PPO from Hesseltinella sp. fused to cTP. Chimeric Protein; cloned from SEQ ID NO: 98 (protein, listed as Hesseltinella sp.)
chain: MELSLLRPTTQSLLPSFSKPNLRLNVYKPLRLRCSVAGGMPRSIVVLGGGISGLSAAYYLSRLVPQAHIRLIESNKRAGGFIKTQQVNDHLIFEAGPRTLRPHGTSGTVLLDMIKDLDLSPLLVNIPKSHPSAQHRYIEYHGQINQLPSGLADMLLHSPPIMDSVITAGMREPFLARASTTKDESLYNFMERRFNEHTALNLMGAMAHGIYAGDAKQLSVHSTFPILAACEQEYGSVVLGMLSGKLSVESPRERQLADACRAKDPEWFKQMQQSSVLGFLPGLGALPSRLTQFLSSQPNVSMQLGETVSRLDGQSSHQIEITTSQGQIYHADHIVSTLPSHALARISMPTTTSLPHLTHNPSADVALVNLAYEKCKVKPGLDGFGFLTPHADTMPPSQFPGLLGMIFDSNSLGVQDQDSNMVRFTAMIGGADWNLAFGSLHDNDAISSKALTMATAALSKYLEIHESPAHYHCRILRQCIPQYLVGHRQRMNELHAALQHSFGHTMSVTGASYLGVSVPDCIKHSRMLIEDLVDTGALGSKQAVITGLEKVTLPMYYKL
herbicides against which tolerance was shown: tolerances against Goal and Star herbicides only

B3: SEQ ID NO: 112: PPO from Penicillium sp. fused to cTP. Chimeric Protein; cloned from SEQ ID NO: 94 (protein, listed as Penicillium sp.)
chain: MELSLLRPTTQSLLPSFSKPNLRLNVYKPLRLRCSVAGGMRLLTASKGLRSPQKPLISAIRCQHRSYNAAVIGGGITGLTAAWQLIQDRECSSVTIYEKSRRLGGWLQSETIPVEGGEVVFEYGPRTLRSAMPASLPLLYLVSNLGLFDELITTSKRSPAALNRYIYYPDHLVRLPTPDPDLSLMENARNIFRTITTEPLFEGFITGLLSEPNKPARPQEEWAIDESLAEFITRRFNRKIADNLVSAVMHGIYADNIDEMSAQAIMGPLRNLEDGGILFGLLIKSIMGKKTRSMDDFLAVDAVYKTPETMQRLDEINRVVKTASTFTFKRGTQQLVEGLTRALRASEKVRLVMDADILALDPPANRGHKLKIYTGIRGEESFDHVISAISAPAMARILDPQGQVKIDCDPEDEYRALWNSKKARHPKPNIGTVSGLHFFRHATTVMVVNLYYKTPNLLPVDGFGYLIPRSIPYEQNPECGLGVIFASASSSGESPVAPYPKVSQDSAPGTKITIMFGGHYWDGWKKQDYPDHKTAVRMAKDMLERHLGITEPPALVRTRLQENAIPKYKPPHIHQIYALSRWAKEEYHNRLVLVGNSFSGVGVGDCVRQGIMAATHGVGRHKLTATPRLESKDWCPWKEYNYQHWDLKGGVPTAPVRLFESDI
herbicides against which tolerance was shown: tolerances against Goal and Star herbicides only

B4: SEQ ID NO: 94: PPO from Penicillium sp. Protein. (protein, listed as Penicillium sp.)
chain: MRLLTASKGLRSPQKPLISAIRCQHRSYNAAVIGGGITGLTAAWQLIQDRECSSVTIYEKSRRLGGWLQSETIPVEGGEVVFEYGPRTLRSAMPASLPLLYLVSNLGLFDELITTSKRSPAALNRYIYYPDHLVRLPTPDPDLSLMENARNIFRTITTEPLFEGFITGLLSEPNKPARPQEEWAIDESLAEFITRRFNRKIADNLVSAVMHGIYADNIDEMSAQAIMGPLRNLEDGGILFGLLIKSIMGKKTRSMDDFLAVDAVYKTPETMQRLDEINRVVKTASTFTFKRGTQQLVEGLTRALRASEKVRLVMDADILALDPPANRGHKLKIYTGIRGEESFDHVISAISAPAMARILDPQGQVKIDCDPEDEYRALWNSKKARHPKPNIGTVSGLHFFRHATTVMVVNLYYKTPNLLPVDGFGYLIPRSIPYEQNPECGLGVIFASASSSGESPVAPYPKVSQDSAPGTKITIMFGGHYWDGWKKQDYPDHKTAVRMAKDMLERHLGITEPPALVRTRLQENAIPKYKPPHIHQIYALSRWAKEEYHNRLVLVGNSFSGVGVGDCVRQGIMAATHGVGRHKLTATPRLESKDWCPWKEYNYQHWDLKGGVPTAPVRLFESDI
High concentration herbicide tolerance: yes
Herbicide tolerance: yes

B5: SEQ ID NO: 115: PPO from Rhodotorula sp. fused to cTP. Chimeric Protein; cloned from SEQ ID NO: 97 (protein, listed as Rhodotorula sp.)
chain: MELSLLRPTTQSLLPSFSKPNLRLNVYKPLRLRCSVAGGMQSYSGNALARQSVPIKPIRRRTPRLNLIRSLPSPRFFVTSPSSSQRHDHPYHTLAILGGGLSGLSTAHYFLRTLSPSLRDQTRIVVLEKEERVGGWCRAVRIQNGRRLGENEKPEGTEDLLVFETGPRSVRPVGLLGWLTIEMAHELGLTPSIVTVPKSAPSARNRFIYTGHRSSTSISPILKAALPTIPSALLEPFRPRSPLHDDPSGLADESVDSFIARRFGRRLADELASAGIHGIYAGDTRRLSVRAVLPALWELEKEWGSVVIGALFGSFARRRGWKKNSPWRMRQQAETEEMERVKERIRAKGGEALVEDMEKASVWGVKGGLQVVTETLREKLEAEGVEFWMGEKGKVEHVEKVDGGWQIRTSSGALDASQLVTTIPQLLPSSLAPPALPATTVSVVNLAFEKPAPGSPPLHPAGFGYLIPRTVPSSLNPHRALGVIFDSDVMPDVDSSSSLGLTKLSLLLGGSYWLDRHPPPQPSHDDLVNAALETLRLHFPDRPIPKPVHAFTHTHVNCIPQVPPGFMPSFRAFGDRLREAGNVAVVGGGFAAVGVNGCVKAAWEVGSAMAQAVNAQAGGKEGEGEEKVREAVARTVKTGTEMWEL
rank among fungal isolated-PPO genes for growth in the presence of Strike, Star, Goal and Aurora: top 3; also recorded: top 2

B6: SEQ ID NO: 103: Nicotiana tabacum protoporphyrinogen oxidase, mitochondrial, NP_001312887.1 (protein, listed as Nicotiana tabacum)
chain: MAPSAGEDKHSSAKRVAVIGAGVSGLAAAYKLKIHGLNVTVFEAEGKAGGKLRSVSQDGLIWDEGANTMTESEGDVTFLIDSLGLREKQQFPLSQNKRYIARNGTPVLLPSNPIDLIKSNFLSTGSKLQMLLEPILWKNKKLSQVSDSHESVSGFFQRHFGKEVVDYLIDPFVAGTCGGDPDSLSMHHSFPELWNLEKRFGSVILGAIRSKLSPKNEKKQGPPKTSANKKRQRGSFSFLGGMQTLTDAICKDLREDELRLNSRVLELSCSCTEDSAIDSWSIISASPHKRQSEEESFDAVIMTAPLCDVKSMKIAKRGNPFLLNFIPEVDYVPLSVVITTFKRENVKYPLEGFGVLVPSKEQQHGLKTLGTLFSSMMFPDRAPNNVYLYTTFVGGSRNRELAKASRTELKEIVTSDLKQLLGAEGEPTYVNHLYWSKAFPLYGHNYDSVLDAIDKMEKNLPGLFYAGNHRGGLSVGKALSSGCNAADLVISYLESVSTDSKRHC
High concentration herbicide tolerance: no

B7: SEQ ID NO: 97: PPO from Rhodotorula sp. Protein. (protein, listed as Rhodotorula sp.)
chain: MQSYSGNALARQSVPIKPIRRRTPRLNLIRSLPSPRFFVTSPSSSQRHDHPYHTLAILGGGLSGLSTAHYFLRTLSPSLRDQTRIVVLEKEERVGGWCRAVRIQNGRRLGENEKPEGTEDLLVFETGPRSVRPVGLLGWLTIEMAHELGLTPSIVTVPKSAPSARNRFIYTGHRSSTSISPILKAALPTIPSALLEPFRPRSPLHDDPSGLADESVDSFIARRFGRRLADELASAGIHGIYAGDTRRLSVRAVLPALWELEKEWGSVVIGALFGSFARRRGWKKNSPWRMRQQAETEEMERVKERIRAKGGEALVEDMEKASVWGVKGGLQVVTETLREKLEAEGVEFWMGEKGKVEHVEKVDGGWQIRTSSGALDASQLVTTIPQLLPSSLAPPALPATTVSVVNLAFEKPAPGSPPLHPAGFGYLIPRTVPSSLNPHRALGVIFDSDVMPDVDSSSSLGLTKLSLLLGGSYWLDRHPPPQPSHDDLVNAALETLRLHFPDRPIPKPVHAFTHTHVNCIPQVPPGFMPSFRAFGDRLREAGNVAVVGGGFAAVGVNGCVKAAWEVGSAMAQAVNAQAGGKEGEGEEKVREAVARTVKTGTEMWEL
High concentration herbicide tolerance: yes
Herbicide tolerance: yes

B8: SEQ ID NO: 114: PPO from Trichoderma sp. fused to cTP. Chimeric Protein; cloned from SEQ ID NO: 96 (protein, listed as Trichoderma sp.)
chain: MELSLLRPTTQSLLPSFSKPNLRLNVYKPLRLRCSVAGGMSLKRADGAAMAFLRLSSAVCGRRRIPAGGLPADANVAVLGGGLTGLTTAYYLAKWLPPTAKITLLEASDRLGGWIKTDRVPVKVGGVEGVVSFERGPRSLSSLNKSTWRFDDLVLWDLALDLGLRVVSPPDKPRYIYYPDHLVPLPPHTSLAAFASEPLVLESLWAGFGYVLRRLFSRKAGVPVQDLSIADWIQHITGSRAVAENLASAMVHGIYGGDIYTLSARSVLDRFYWVHYLPALGPDVRHMALSEQVFMEAMGQDPLIRKLAQQPRGALLNFGEAGMETLPIALADALNGQANVEVKLGAKVTGLEYESETEMMKITTTGQDDSPAEKYHKVISTLPSQHLARITDTLPSLASSHAVSIMTVNIWYPQTNLKPPGFGYLIPLSVPAEQNPERALGVFFDSDVGVRGPDEPAGTKLFVLMGGHYYDKKQPGASVRVPSEEEAIEQAKRVLERHLGIPQSTPCFAMARLASECIPQYVCGHQDTMAAADEDLRDSFDGRLAVAGGSYTKIGAMGALRNGYDIANTVVREDWLTTGLEQLEFPTQFCGVPTERIPVRRFSRR
rank among fungal isolated-PPO genes for growth in the presence of Strike, Star, Goal and Aurora: top 3
